{"source": "patent US20250215403A1", "about": "“Compositions and Methods for Cardiac Tissue Regeneration” (Temple University - Of The Commonwealth System Of Higher …, priority 2022, published 2025)", "key": {"[1]": {"experiment": "Mouse MI model: heart histology 28 days post-MI (Masson trichrome scar size, HW/BW, WGA CM size, CD31 capillaries)", "type": "in vivo", "experimental": "(§1) All surgical and experimental procedures with mice were performed in accordance with protocols approved by Institutional Animal Care and Use Committees at Temple University Animal Care and Use Committee (IACUC). C57BL6 or CM-specific MADM mice (8-12-weeks-old) were anesthetized with isoflurane. MI was induced by permanent ligation of the LAD, as previously described (Garikipati, V. N. S., et al., 2019, Nature Communications, 10:4317). Briefly, the left thoracic region was shaved and sterilized. After intubation, the heart was exposed through a left thoracotomy. A suture was placed to ligate the LAD. The thoracotomy and skin were sutured closed in layers. Excess air was removed from the thoracic cavity, and the mouse was removed from ventilation when normal breathing was established. In order to determine the effect of modRNA on cardiovascular outcome after MI, modRNAs (100 μg/heart) were injected into the infarct zone immediately after LAD ligation (Magadum A., et al., Circulation. 2020, 141 (15): 1249-1265). For examination of heart histology, hearts were collected at the end of each study, quickly washed in PBS, weighed, and fixed in 4% PFA for cryo-sectioning and immunostainings. In all experiments, the surgeon was blinded to the treatment group. For assessment of heart histology, hearts were collected at the end of each study. The hearts were excised, briefly washed in PBS, perfused with perfusion buffer, weighed and fixed in 4% PFA at 4° C. overnight. The heart blocks were transverse sectioned at 6-8 μm using cryostat. The heart sections were further processed for histological evaluation using immunostaining (see below) or histological scar staining using Masson's trichrome staining kit (Sigma) according to standard procedures. Measuring the ratio of heart weight to body weight was done using a scale. This ratio was calculated as the heart tissue weight relative to the mouse total body weight in grams (g).\n(§2) Mice hearts were harvested, weighed, and fixed in 4% PFA/PBS overnight on shaker and then washed with PBS for 1 hour and incubated in 30% sucrose/PBS at 4° C. for 12-18 hours. Hearts were then fixed in OCT and frozen at −80° C. (Magadum A., et al., Circulation. 2020, 141 (15): 1249-1265). Transverse heart sections (6-8 μm) were made using a cryostat. […] For immunostaining with wheat germ agglutinin (WGA) for CM size quantification, images were captured at 40× magnification, and ImageJ was used to determine the area of each cell. Quantitative analyses involved counting of multiple fields from 5-8 mouse hearts per group, and 3-4 sections/heart (˜50 cells per field assessed, for a total ˜250 cells per sample). […] BrdU positive CMs were counted in multiple fields from three independent samples per group and 3 sections/heart. […]"}, "cardiomyocytes (CM)": {"tested_on": "cardiomyocytes (CM)", "experiment": "Mouse MI model: TUNEL staining of CM apoptosis", "type": "in vivo", "conditions": "vs Luc modRNA", "experimental": "as §1, §2"}, "PSAT1": {"tested_on": "PSAT1", "experiment": "PSAT1 protein expression in NRVM after modRNA transfection", "type": "cell-based, rat", "conditions": "in vitro modRNA transfection"}}}
{"molecule": "PSAT1 modRNA: modified mRNA with N1-methylpseudouridine, transcribed in vitro, encoding phosphoserine aminotransferase 1 (ORF SEQ ID NO: 1, RNA SEQ ID NO: 2) (nucleic acid, N1-methylpseudouridine) AUGGAAGCCACCAAGCAAGUGGUUAACUUUGGGCCCGGGCCUGCCAAGCUGCCACACUCGGUAUUGUUGGAGAUCCAGAAGCAGCUACUAGACUACAGAGGACUCGGCAUCAGUGUGCUCGAAAUGAGUCACAGGUCAUCAGAUUUUGCCAAGAUUAUUGGCAAUACAGAGAAUCUUGUGAGGGAAUUGCUAGCUGUUCCCAACAACUACAAGGUGAUCUUUGUACAAGGAGGUGGGUCUGGCCAGUUCAGUGCUGUCCCCUUAAAUCUGAUUGGCCUGAAAGCUGGAAGGAGUGCUGACUACGUGGUGACCGGAGCUUGGUCAGCUAAGGCUGCGGAAGAAGCCAAGAAGUUUGGAACGGUGAACAUUGUCCACCCUAAACUUGGAAGUUACACAAAAAUUCCAGACCCAAGCACCUGGAACCUCAACCCGGACGCCUCCUAUGUAUACUUCUGUGCAAACGAGACUGUGCACGGGGUGGAGUUUGACUUCGUACCUGACGUCAAGGGAGCGGUGCUGGUCUGUGACAUGUCCUCAAACUUCUUAUCCAGGCCGGUGGAUGUUUCCAAGUUUGGUGUGAUUUUCGCUGGUGCUCAGAAGAAUGUUGGCUCUGCCGGGGUGACGGUGGUGAUUGUCCGGGAUGACCUGCUGGGGUUCUCGCUCAGAGAGUGCCCAUCAGUCCUUGACUACAAAGUGCAGGCUGGGAACAACUCUUUGUAUAACACACCUCCGUGCUUCAGCAUCUACGUCAUGGGCAUGGUCCUGGAAUGGAUCAAGAACAACGGCGGGGCCGCAGCCAUGGAGAAGCUCAGCUCCAUCAAAUCCCAAAUGAUUUAUGAGAUCAUUGAUAAUUCUCAAGGAUUUUAUGUAUGCCCAGUGGAGCGCCAGAAUAGAAGCAGGAUGAACAUCCCAUUUCGCAUUGGCAACGCCAAAGGAGACGAAGCUUUGGAAAAGCGGUUUCUUGACAAGGCGGUAGAACUCAACAUGAUCUCCUUGAAGGGGCACAGGUCAGUGGGAGGCAUUCGUGCCUCUCUGUAUAACGCUGUCACAACCGAAGACGUUGAGAAGCUGGCGGCCUUCAUGAAGAAUUUCUUGGAGAUGCAUCAGCUGUGA", "values": [{"measurement": "CM size (WGA)", "setting": "[1]", "result": "significantly decreased"}, {"measurement": "capillary density (CD31)", "setting": "[1]", "result": "improved"}, {"measurement": "heart weight to body weight (HW/BW) ratio", "setting": "[1]", "result": "significantly increased"}, {"measurement": "scar size (Masson's trichrome staining)", "setting": "[1]; compared to Luc modRNA", "result": "decreased"}, {"measurement": "TUNEL+ CMs", "setting": "cardiomyocytes (CM); 2 days post-MI", "result": "significantly decreased"}, {"measurement": "TUNEL+ CMs", "setting": "cardiomyocytes (CM); 7 days post-MI", "result": "significantly decreased"}, {"measurement": "PSAT1 protein expression in NRVM (onset and duration)", "setting": "PSAT1", "result": "achieved within hours of administration and lasted up to several days"}]}
